Our source for the cellular endocytosis: mean cellular fluorescent signal (FITC-conjugated antibody, 10 µg/mL, 1 hr, undifferentiated human podocytes) values is patent publication US20250215104A1.

For the test, the target named is cell surface human uPAR (huPAR) (human) (UniProt Q03405). As to the kind of experiment: cell-based or functional assay.
Sequence of cell surface human uPAR (huPAR) (human) (Q03405 23-305): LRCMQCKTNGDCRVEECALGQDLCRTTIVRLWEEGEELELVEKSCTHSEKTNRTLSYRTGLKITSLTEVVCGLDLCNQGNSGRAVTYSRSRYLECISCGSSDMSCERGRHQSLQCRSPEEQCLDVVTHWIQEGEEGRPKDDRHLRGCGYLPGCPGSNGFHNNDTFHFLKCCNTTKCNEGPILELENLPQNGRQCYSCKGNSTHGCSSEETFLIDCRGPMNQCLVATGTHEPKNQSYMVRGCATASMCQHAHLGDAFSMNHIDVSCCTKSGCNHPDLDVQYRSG

With hIgG control antibody, the cellular endocytosis: mean cellular fluorescent signal (FITC-conjugated antibody, 10 µg/mL, 1 hr, undifferentiated human podocytes) came to 100 RFU.
